Source: patent US20090004190A1, “Rage Fusion Proteins And Methods Of Use” (priority 2006, published 2009)
“And” between values parts separate entries of the source, which are not always exact repeats. Equal values may be shown once.

Legend:
[1] = test system: S100b/RAGE-induced production of TNF-α in THP-1 cells; assay: Inhibition of S100b/RAGE-induced production of TNF-α in THP-1 cells; type: cell-based; details: 10 μg protein, FIG. 10
Excerpt: Use of the RAGE fusion proteins of the present invention to modulate expression of the cellular effector TNF-α is shown in FIG. 10. THP-1 myeloid cells may be cultured in RPMI-1640 media supplemented with 10% FBS and induced to secrete TNF-α via stimulation of RAGE with S100b. When such stimulation occurs in the presence of a RAGE fusion protein, induction of TNF-α by S100b binding to RAGE may be inhibited.
Previous work has shown that the myeloid THP-1 cells may secrete TNF-α in response to RAGE ligands. In this assay, THP-1 cells were cultured in RPMI-1640 media supplemented with 10% FBS using a protocol provided by ATCC. […] The amount of TNF-α secreted by the THP-1 cells was measured 24 hours after the addition of the proteins to the cell culture using a commercially available ELISA kit for TNF-α (R&D Systems, Minneapolis, Minn.).

[2] = test system: recurrent diabetes in NOD/LtJ mice with syngeneic islet transplants; assay: Syngeneic islet transplantation in diabetic NOD mice; type: in vivo, mouse; details: 300 ug LD + 100 ug qod ip
Excerpt: Spontaneous autoimmune non-obese diabetic mice (NOD/LtJ) (12-25 weeks old) served as recipients for islet cells, while young pre-diabetic NOD/LtJ mice (6-7 weeks old) served as donors in syngeneic islet transplantation. Islets for transplantation were isolated as described above in Section A (Allogeneic Islet Transplantation).
Diabetic NOD/LtJ mice received islet grafts within 2 days of the diagnosis of diabetes. 500-600 freshly isolated islets (approximately 550 islet equivalents) from donor mice were picked up with an infusion set and transplanted into the subcapular space of the right kidney.
Test compounds were administered as soon as the islets were transplanted and continued for approximately 8 weeks.
Islet graft function was monitored by serial blood glucose measurements daily for the first 2 weeks after islet transplantation, followed by every other day thereafter. Reversal of diabetes was defined as blood glucose less than 200 mg/dl on two consecutive measurements. Percentage graft loss was determined when blood glucose exceeded 250 mg/dl on two consecutive measurements.

[3] = target: T1, amyloid-beta (Abeta) (Amyloid Beta (1-40)) (Homo sapiens, UniProt P05067); assay: In vitro ligand binding (ELISA) to immobilized amyloid-beta; details: ligand 5 micrograms per well; FIG. 7
T1 construct: Amyloid Beta (1-40) from Biosource; purchased Biosource
Description: (§1) For example, the RAGE fusion protein may be used in a binding assay to identify potential RAGE ligands. In one example embodiment of such a binding assay, a known RAGE ligand may coated onto a solid substrate (e.g., Maxisorb plates) at a concentration of about 5 micrograms per well, where each well contains a total volume of about 100 microliters (μL). The plates may be incubated at 4° C. overnight to allow the ligand to absorb. Alternatively, shorter incubation periods at higher temperature (e.g., room temperature) may be used. […] The RAGE fusion protein bound to the immobilized ligand may be detected in a variety of ways. […] The bound complex may be detected by adding the alkaline phosphatase substrate, para-nitrophenylphosphate (PNPP), and measuring conversion of PNPP to para-nitrophenol (PNP) as an increase in absorbance at 405 nm. […] In the absence of ligand (i.e., coating with only BSA) there was no increase in absorbance. […] Binding was detected by the addition of an immunodetection complex containing a monoclonal mouse anti-human IgG1 diluted 1:11,000 to a final assay concentration (FAC) of 21 ng/100 μL, a biotinylated goat anti-mouse IgG diluted 1:500, to a FAC of […], and an avidin-linked alkaline phosphatase. […]

[4] = target: T2, amphoterin (Ampho) (Homo sapiens, UniProt P09429); assay: In vitro ligand binding (ELISA) to immobilized amphoterin; details: ligand 5 micrograms per well; FIG. 7
T2 sequence (P09429 1-215): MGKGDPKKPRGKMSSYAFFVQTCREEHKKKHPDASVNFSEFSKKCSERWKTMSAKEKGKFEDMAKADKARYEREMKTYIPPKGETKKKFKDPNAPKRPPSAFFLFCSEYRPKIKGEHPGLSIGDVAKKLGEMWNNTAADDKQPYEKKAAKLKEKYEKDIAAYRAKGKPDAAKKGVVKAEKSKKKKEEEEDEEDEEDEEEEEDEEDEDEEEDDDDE
Description: as §1

[5] = test system: Fc receptor; assay: Fc receptor activation: TNF-α secretion from THP-1 cells; type: cell-based; details: well precoated with 10 ug/well heat aggregated protein, 24 hours, FIG. 12
Excerpt: Fc stimulation results in TNF-α secretion.

T1 sequence (P05067 672-711): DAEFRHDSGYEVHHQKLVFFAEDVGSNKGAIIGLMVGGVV

B1: TTP-4000: four domain RAGE fusion protein: human RAGE V and C1 domains with interdomain linkers (to residue 251) fused to human IgG1 CH2 and CH3; SEQ ID NO: 34/56 (protein, listed as Homo sapiens)
chain: QNITARIGEPLVLKCKGAPKKPPQRLEWKLNTGRTEAWKVLSPQGGGPWDSVARVLPNGSLFLPAVGIQDEGIFRCQAMNRNGKETKSNYRVRVYQIPGKPEIVDSASELTAGVPNKVGTCVSEGSYPAGTLSWHLDGKPLVPNEKGVSVKEQTRRHPETGLFTLQSELMVTPARGGDPRPTFSCSFSPGLPRHRALRTAPIQPRVWEPVPLEEVQLVVEPEGGAVAPPSVFLFPPKPKDTLMISRTPEVTCVVVDVSHEDPEVKFNWYVDGVEVHNAKTKPREEQYNSTYRVVSVLTVLHQDWLNGKEYKCKVSNKALPAPIEKTISKAKGQPREPQVYTLPPSRDELTKNQVSLTCLVKGFYPSDIAVEWESNGQPENNYKTTPPVLDSDGSFFLYSKLTVDKSRWQQGNVFSCSVMHEALHNHYTQKSLSLSPGK
blocking S100b induction of TNF-α compared with sRAGE [1]: at least as effective
reduction of S100b induction of TNF-α ([1]; S100b 0.1 mg/ml FAC, 24 hours): ~70%
day of graft loss, Mean [2]: 39.875 days
day of graft loss, each animal ([2]; blood glucose exceeded 250 mg/dl): 38 day (2×) and 40 day and 43 day and 36 day and 45 day and 44 day and 35 day
binding to immobilized amyloid-beta (absorbance at 405 nm) [3]: specifically interact
binding to immobilized amphoterin (absorbance at 405 nm) [4]: specifically interact
TNF generated [5]: less than 2 ng/well
